“And” between values parts separate entries of the source, which are not always exact repeats. Equal values may be shown once.
Columns and labels:
[1] = target: Mycoplasma penetrans methionyl-tRNA synthetase, full length, M568A (Mycoplasma penetrans); assay: PAGE analysis
[2] = target: Mycoplasma penetrans methionyl-tRNA synthetase, full length, M568A (Mycoplasma penetrans); assay: cryo-EM structure
[3] = target: Mycoplasma penetrans methionyl-tRNA synthetase, full length, M568A (Mycoplasma penetrans); assay: cryo-EM structure; remark: listed apart in the source

Substance: Mycoplasma penetrans methionyl-tRNA synthetase, full length, M568A (enzyme)
- stoichiometry N [1]: 2
- stoichiometry N [2]: 4 and 6
- stoichiometry N [3]: 2

Reference: publication doi:10.1101/2025.10.13.682103
